Source: patent US20150056189A1 (Daiichi Sankyo, published 2015)
Positions count from the first letter of the chain named. In names and notes the source's numbering stands.

B1: K3-1115 antibody (antibody, human IgG2, kappa, V domains shown)
VH: EVQLVESGGGLVQPGGSLRLSCAASGFNFNDYFMNWVRQAPGKGLEWVAQIRNKIYTYATFYAASVKGRFTISRDNAKNSLYLQMNSLRAEDTAVYYCARSLTGGDYFDYWGQGTLVTVSS
VL: EILMTQSPATLSLSPGERATLSCRASQSVTISGYSFIHWYQQKPGQAPRLLIYRASNLASGIPARFSGSGSGTDFTLTISSLEPEDFALYYCQQSRKSPWTFGQGTKVEIKR
notes: Humanized form of the rat antibody #32A1; Full-length IgG made in FreeStyle 293F cells; Used as the control antibody; In SPR it was captured through an anti-human IgG antibody; also called h#32A1-H1-1/L2-15
B2: K3-1115/T103E antibody (antibody, human IgG2, kappa, V domains shown)
VH: B1 VH with T103E
VL: B1 VL
notes: Full-length IgG made in FreeStyle 293F cells

Columns and labels:
[1] = biological target: T1, human Siglec-15 V-set domain (human, UniProt Q6ZMC9 39-165); experiment: SPR, Biacore T200; antibody captured via anti-human IgG on CM5 chip, antigen as analyte, 1:1 binding model
T1 construct: range 39-165; Purified to a single 14 kDa band; Used as the analyte in SPR; also called hSiglec-15 (39-165) V-set domain; human Siglec-15 protein
T1 sequence (looked up): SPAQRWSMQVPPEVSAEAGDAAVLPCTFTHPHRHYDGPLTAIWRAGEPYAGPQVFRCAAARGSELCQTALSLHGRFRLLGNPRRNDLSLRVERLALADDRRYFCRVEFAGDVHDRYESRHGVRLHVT
Procedure: (§1) As a running buffer, HBS-EP+ (10 mM HEPES pH 7.4, 0.15 M NaCl, 3 mM EDTA, 0.05% surfactant P20) was used. On the chip having the antibody bound thereto, a dilution series of an antigen solution (0.003 to 7 nM) was added at a flow rate of 90 μL/min for 233 seconds, and subsequently, the dissociation phase was monitored for 2000 to 3600 seconds. As a regeneration solution, 3 M MgCl₂ was added at a flow rate of 10 μL/min for 30 seconds. In the analysis of data, a 1:1 binding model of analysis software (Biacore T200 Evaluation software, version 1.0) was used, and an association rate constant (kon), a dissociation rate constant (koff), and a dissociation constant (KD; KD=koff/kon) were calculated.

[2] = biological target: T1, human Siglec-15 V-set domain; experiment: SPR, Biacore T200; ratio of KD values against K3-1115
Procedure: as §1

Row | Binder | Kd [1] | fold enhancement of affinity compared with K3-1115 [2]
1 | B1 | 0.26 nM | 
2 | B2 | 0.0041 nM | ~60 times
